Data published in publication PMC1894825, “Transcriptional Regulation of Multi-Drug Tolerance and Antibiotic-Induced Responses by the Histone-Like Protein Lsr2 in M. tuberculosis” (PLoS Pathogens, 2007).

Target: the molecule itself
Experiment: cross-linking

B1: recombinant Lsr2 (M. tuberculosis, Rv3597c) (natural protein)
chain: not shown
notes: also called rLsr2; not shown: His6, N-terminal, kept
  binding result: binds
